Laboratory results published in US20250326842A1 (BEIGENE SWITZERLAND, published 2025).

What was measured:
Human C1q = Human C1q (human, UniProt P02745 23-245; P02746 28-253; P02747 29-245); assay: ELISA: plate coated with increasing amounts of antibody, human C1q at 8 µg/mL, anti-C1q antibody detection
Procedure: Human C1q (100 uL total: 8 μg/mL) was incubated in the antibody-coated wells. Bound C1q was detected by a specific anti-C1q monoclonal antibody. ELISA readings at 450 nm were plotted on the y-axis.

hPVRIG-ECD-his = target: T1, hPVRIG-ECD-his (human, UniProt Q6DKI7 41-171); assay: blocking ELISA: hPVRIG-His coated, antibody mixed with PVRL2-biotin at 1 ug/mL; % inhibition of PVRL2 binding [panel B]
T1 construct: Acrobiosystems PVG-H52H4; also called hPVRIG-His; human PVRIG-His; not shown: His tag
T1 sequence: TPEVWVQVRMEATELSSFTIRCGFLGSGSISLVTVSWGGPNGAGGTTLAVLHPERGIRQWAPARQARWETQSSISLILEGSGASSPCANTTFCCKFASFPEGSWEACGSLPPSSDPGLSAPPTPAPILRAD

FcγRIIA R131 = target: T2, FcγRIIA R131 (human, UniProt P12318 36-218, limits assumed); assay: Biacore, KD from equilibrium analysis
T2 sequence (looked up): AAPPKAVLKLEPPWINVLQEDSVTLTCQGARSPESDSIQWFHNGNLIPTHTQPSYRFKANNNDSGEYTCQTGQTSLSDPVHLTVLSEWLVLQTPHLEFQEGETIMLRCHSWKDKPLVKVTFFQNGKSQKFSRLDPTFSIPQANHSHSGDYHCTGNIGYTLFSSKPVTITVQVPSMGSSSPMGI
Procedure: (§1) K¹ (M) values were calculated from the ratio of the kinetic constants as KD=koff/kₒₙ. K2 (M) values were determined by the analyte concentration at which half of the ligands are occupied at equilibrium.

FcγRIIIA V158 = FcγRIIIA V158 (human, UniProt P08637 17-208, limits assumed); assay: Biacore, KD from equilibrium analysis
Chain of FcγRIIIA V158 (P08637 17-208 F176V limits assumed): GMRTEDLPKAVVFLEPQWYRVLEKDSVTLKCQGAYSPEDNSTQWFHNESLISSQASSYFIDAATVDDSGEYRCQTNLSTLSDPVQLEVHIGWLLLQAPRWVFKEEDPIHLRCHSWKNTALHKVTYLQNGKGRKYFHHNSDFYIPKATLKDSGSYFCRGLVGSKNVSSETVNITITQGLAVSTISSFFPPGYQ
Procedure: as §1

FcγRIIB = target: T3, FcγRIIB (human, UniProt P31994 46-217, limits assumed); assay: Biacore, KD from equilibrium analysis
T3 sequence (looked up): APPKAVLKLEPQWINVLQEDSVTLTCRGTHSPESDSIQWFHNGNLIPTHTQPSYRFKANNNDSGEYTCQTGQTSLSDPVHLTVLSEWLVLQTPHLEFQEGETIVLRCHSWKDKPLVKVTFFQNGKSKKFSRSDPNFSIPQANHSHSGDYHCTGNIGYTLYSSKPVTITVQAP
Procedure: as §1

Chain of Human C1q (P02745 23-245 limits assumed, chain 1 of 3): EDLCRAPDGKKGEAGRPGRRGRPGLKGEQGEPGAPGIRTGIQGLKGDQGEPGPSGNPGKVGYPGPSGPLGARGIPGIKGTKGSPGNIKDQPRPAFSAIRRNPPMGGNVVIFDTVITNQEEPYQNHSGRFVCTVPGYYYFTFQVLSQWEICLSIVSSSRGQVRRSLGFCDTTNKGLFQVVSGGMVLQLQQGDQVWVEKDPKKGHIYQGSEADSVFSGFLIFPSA
Chain of Human C1q (P02746 28-253 limits assumed, chain 2 of 3): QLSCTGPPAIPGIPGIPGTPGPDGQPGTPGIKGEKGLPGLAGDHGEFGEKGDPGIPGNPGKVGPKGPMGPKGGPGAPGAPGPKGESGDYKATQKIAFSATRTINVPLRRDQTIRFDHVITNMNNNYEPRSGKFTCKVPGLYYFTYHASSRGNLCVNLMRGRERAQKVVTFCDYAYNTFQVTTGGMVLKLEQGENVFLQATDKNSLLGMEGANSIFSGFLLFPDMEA
Chain of Human C1q (P02747 29-245 limits assumed, chain 3 of 3): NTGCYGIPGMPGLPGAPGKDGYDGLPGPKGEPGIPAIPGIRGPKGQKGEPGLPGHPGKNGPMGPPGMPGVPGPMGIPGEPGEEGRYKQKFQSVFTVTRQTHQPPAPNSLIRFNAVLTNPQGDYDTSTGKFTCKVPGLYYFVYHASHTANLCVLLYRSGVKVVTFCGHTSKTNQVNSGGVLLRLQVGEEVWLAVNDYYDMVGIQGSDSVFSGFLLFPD

- EC50 (read off the curve) (Human C1q): ~2 µg/mL
- IC50 (read off the curve) (hPVRIG-ECD-his): ~0.4 µg/mL
- Kd (FcγRIIA R131): 1.92 µM
- Kd (FcγRIIIA V158): 0.297 µM
- Kd (FcγRIIB): 9.23 µM
B1: BGA384 (antibody, human IgG1, kappa)
heavy: not shown
light: QIVLTQSPATLSLSPGERATLSCSAGSSVNYMHWFQQKPGQAPRLLIYSTSNLASGVPARFSGSGSGTDYTLTISSLEPEDFAVYYCQQRSSLPFTFGQGTKLEIKRTVAAPSVFIFPPSDEQLKSGTASVVCLLNNFYPREAKVQWKVDNALQSGNSQESVTEQDSKDSTYSLSSTLTLSKADYEKHKVYACEVTHQGLSSPVTKSFNRGEC
notes: also called BGB-A538; BGA384 WT
